Where a chain is given by its changes, count along the chain named. Names and notes keep the numbering of the source.

To fix the notation:
B1: CD80 E35D/M47V/N48K/V68M/K89N IgV-Fc, delta linker (Fc fusion)
chain: VIHVTKEVKEVATLSCGHNVSVEELAQTRIYWQKDKKMVLTMMSGDVKIWPEYKNRTIFDITNNLSIMILALRPSDEGTYECVVLKYENDAFKREHLAEVTLSVKTHTCPPCPAPEAEGAPSVFLFPPKPKDTLMISRTPEVTCVVVDVSHEDPEVKFNWYVDGVEVHNAKTKPREEQYNSTYRVVSVLTVLHQDWLNGKEYKCKVSNKALPAPIEKTISKAKGQPREPQVYTLPPSREEMTKNQVSLTCLVKGFYPSDIAVEWESNGQPENNYKTTPPVLDSDGSFFLYSKLTVDKSRWQQGNVFSCSVMHEALHNHYTQKSLSLSPG
notes: Fused directly to the Fc with no additional linker; also called E35D/M47V/N48K/V68M/K89N delta
B2: CD80 E35D/D46V/M47L/V68M/L85Q/E88D IgV-Fc, delta linker (Fc fusion)
chain: B1 chain with D46V, V47L, K48N, L85Q, E88D, N89K
notes: Fused directly to the Fc with no additional linker; also called E35D/D46V/M47L/V68M/L85Q/E88D delta
B3: wild-type CD80 IgV-Fc (inert) with GSG4S linker, Example 16 (Fc fusion)
chain: VIHVTKEVKEVATLSCGHNVSVEELAQTRIYWQKEKKMVLTMMSGDMNIWPEYKNRTIFDITNNLSIVILALRPSDEGTYECVVLKYEKDAFKREHLAEVTLSVKADGSGGGGSEPKSSDKTHTCPPCPAPEAEGAPSVFLFPPKPKDTLMISRTPEVTCVVVDVSHEDPEVKFNWYVDGVEVHNAKTKPREEQYNSTYRVVSVLTVLHQDWLNGKEYKCKVSNKALPAPIEKTISKAKGQPREPQVYTLPPSREEMTKNQVSLTCLVKGFYPSDIAVEWESNGQPENNYKTTPPVLDSDGSFFLYSKLTVDKSRWQQGNVFSCSVMHEALHNHYTQKSLSLSPG
notes: also called CD80 WT IgV-Fc
B4: CD80 E35D/M47V/N48K/V68M/K89N IgV-Fc, EAAAK linker (Fc fusion, not shown: a dimerising Fc or GST)
chain: VIHVTKEVKEVATLSCGHNVSVEELAQTRIYWQKDKKMVLTMMSGDVKIWPEYKNRTIFDITNNLSIMILALRPSDEGTYECVVLKYENDAFKREHLAEVTLSVKADEAAAK
B5: CD80 E35D/D46V/M47L/V68M/L85Q/E88D IgV-Fc, EAAAK linker (Fc fusion, not shown: a dimerising Fc or GST)
chain: B4 chain with D46V, V47L, K48N, L85Q, E88D, N89K
B6: CD80 E35D/D46V/M47L/V68M/L85Q/E88D IgV-Fc, GS(G4S)5 linker (Fc fusion, not shown: a dimerising Fc or GST)
chain: VIHVTKEVKEVATLSCGHNVSVEELAQTRIYWQKDKKMVLTMMSGVLNIWPEYKNRTIFDITNNLSIMILALRPSDEGTYECVVQKYDKDAFKREHLAEVTLSVKADGSGGGGSGGGGSGGGGSGGGGSGGGGS
B7: CD80 E35D/D46V/M47L/V68M/L85Q/E88D IgV-Fc, (EAAAK)3 linker (Fc fusion, not shown: a dimerising Fc or GST)
chain: VIHVTKEVKEVATLSCGHNVSVEELAQTRIYWQKDKKMVLTMMSGVLNIWPEYKNRTIFDITNNLSIMILALRPSDEGTYECVVQKYDKDAFKREHLAEVTLSVKADEAAAKEAAAKEAAAK
B8: variant CD80 IgV-Fc H18Y/A26E/A71G/D90G (Fc fusion, not shown: small tags and cut ends; a dimerising Fc or GST)
chain: VIHVTKEVKEVATLSCGYNVSVEELEQTRIYWQKEKKMVLTMMSGDMNIWPEYKNRTIFDITNNLSIVILGLRPSDEGTYECVVLKYEKGAFKREHLAEVTLSVKAD
B9: variant CD80 IgV-Fc M47L/V68M/A71G/D90G (Fc fusion, not shown: small tags and cut ends; a dimerising Fc or GST)
chain: B8 chain with Y18H, E26A, M47L, V68M
B10: variant CD80 IgV-Fc H18Y/A26E/E35D/D90G (Fc fusion, not shown: small tags and cut ends; a dimerising Fc or GST)
chain: B8 chain with E35D, G71A
B11: variant CD80 IgV-Fc E35D/M42V/M47V/E52D/L85Q (Fc fusion, not shown: small tags and cut ends; a dimerising Fc or GST)
chain: B8 chain with Y18H, E26A, E35D, M42V, M47V, E52D, G71A, L85Q, G90D
notes: Fc fusion of the variant IgV
B12: WT CD80 ECD-Fc (R&D) (Fc fusion)
chain: VIHVTKEVKEVATLSCGHNVSVEELAQTRIYWQKEKKMVLTMMSGDMNIWPEYKNRTIFDITNNLSIVILALRPSDEGTYECVVLKYEKDAFKREHLAEVTLSVKADFPTPSISDFEIPTSNIRRIICSTSGGFPEPHLSWLENGEELNAINTTVSQDPETELYAVSSKLDFNMTTNHSFMCLIKYGHLRVNQTFNWNTTKQEHFPDN
notes: Bought from R&D Systems; also called unmodified CD80-ECD-Fc fusion molecule (R&D Systems, USA); wild-type CD80-ECD-Fc; not shown: Fc and any linker of the bought R&D Systems protein are not described

T5 sequence (P16410 36-223): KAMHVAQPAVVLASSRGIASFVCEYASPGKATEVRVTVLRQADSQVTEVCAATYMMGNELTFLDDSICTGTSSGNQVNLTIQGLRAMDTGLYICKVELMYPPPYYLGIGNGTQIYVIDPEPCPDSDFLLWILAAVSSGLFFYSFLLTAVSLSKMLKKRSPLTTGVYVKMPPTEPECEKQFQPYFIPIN
T7 sequence (P16410 36-223): as above

One test concerns the target T1, human PD-L1 (human, UniProt Q9NZQ7 19-290). The test can be described thus: cell-based or functional assay.
T1 sequence (Q9NZQ7 19-290): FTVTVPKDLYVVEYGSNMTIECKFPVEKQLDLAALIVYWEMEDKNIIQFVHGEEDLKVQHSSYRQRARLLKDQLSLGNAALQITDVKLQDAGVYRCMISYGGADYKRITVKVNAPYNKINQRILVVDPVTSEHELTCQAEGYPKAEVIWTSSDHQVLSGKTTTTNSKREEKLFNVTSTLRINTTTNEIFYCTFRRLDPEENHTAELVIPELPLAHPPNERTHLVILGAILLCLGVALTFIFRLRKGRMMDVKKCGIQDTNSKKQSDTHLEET
Regarding B1, the “Fold Increase over WT CD80-IgV-Fc, Jurkat/IL2 + CHO/OKT3/PD-L1 Reporter Assay” value is 2.63 fold and the “RLU, Jurkat/IL2 + CHO/OKT3/PD-L1 Reporter Assay, CD80 Conc 5.0 nM” value is 1030 RLU.
Take B2: the “Fold Increase over WT CD80-IgV-Fc, Jurkat/IL2 + CHO/OKT3/PD-L1 Reporter Assay” value turned out to be 2.77 fold and the “RLU, Jurkat/IL2 + CHO/OKT3/PD-L1 Reporter Assay, CD80 Conc 5.0 nM” value turned out to be 1080 RLU.
Regarding B3, the “Fold Increase over WT CD80-IgV-Fc, Jurkat/IL2 + CHO/OKT3/PD-L1 Reporter Assay” value worked out at 1 fold and the “RLU, Jurkat/IL2 + CHO/OKT3/PD-L1 Reporter Assay, CD80 Conc 5.0 nM” value was determined as 390 RLU.
B4: the “Fold Increase over WT CD80-IgV-Fc, Jurkat/IL2 + CHO/OKT3/PD-L1 Reporter Assay” value was 4.38 fold and the “RLU, Jurkat/IL2 + CHO/OKT3/PD-L1 Reporter Assay, CD80 Conc 5.0 nM” value is 1710 RLU.
In the same order, the values of B5 are 3.75 fold and 1460 RLU.
Regarding B6, the “Fold Increase over WT CD80-IgV-Fc, Jurkat/IL2 + CHO/OKT3/PD-L1 Reporter Assay” value came to 5.26 fold and the “RLU, Jurkat/IL2 + CHO/OKT3/PD-L1 Reporter Assay, CD80 Conc 5.0 nM” value amounted to 2050 RLU.
In the same order, the values of B7 are 5.25 fold and 2050 RLU.

The next test addresses T2, human CD28 (human, UniProt P10747 19-220).
T2 construct: Endogenous CD28 on Jurkat/IL2 reporter cells
In words: flow cytometry on Jurkat cells (CD28). (In flow cytometry, cells or beads pass a laser one at a time.)
B1: the “MFI at 33.3 nM” value is 4680 MFI.
The same measure, in the same setting: for B2 the value was 4170 MFI; for B3, 56 MFI; for B4, 2630 MFI.
The same measure, in the same setting: for B5 the value was 563 MFI.
Same read-out and setting: for B6 the value was 143 MFI.
Turning to B7, the “MFI at 33.3 nM” value worked out at 197 MFI.

A further test addresses T1, human PD-L1. In words: flow cytometry; PD-L1 MFI over CD28 MFI.
In the case of B1, the “Ratio of PDL1:CD28” value amounted to 4 ratio.
The same measure, in the same setting: for B2 the value was 5 ratio.
Still for that read-out and setting: then B3, with 1 ratio.
On the same count and under the same terms, then B4, with 9 ratio; and B5, with 44 ratio.
Turning to B6, the “Ratio of PDL1:CD28” value is 157 ratio.
As to B7, the “Ratio of PDL1:CD28” value turned out to be 129 ratio.

Another test deals with T3, human CTLA4 (human, UniProt P16410 36-223).
T3 construct: also called huCTLA4
T3 sequence (P16410 36-223): as the sequence (P16410 36-223) above
In words: flow cytometry, CHO cells expressing huCTLA4.
For B8, the “MFI at 33.3 nM” value was 19900 MFI.
Same read-out and setting: for B9 the value was 17400 MFI.

In a further test the target is T4, human PD-L1 (human, UniProt Q9NZQ7 19-290).
T4 construct: also called huPD-L1; CD274
The test can be described thus: flow cytometry, CHO cells expressing huPD-L1.
T4 sequence (Q9NZQ7 19-290): as the sequence (Q9NZQ7 19-290) above
As to B10, the “MFI at 33.3 nM” value turned out to be 10000 MFI.
Same read-out and setting: for B9 the value was 31100 MFI.

A further test has as its target T5, human CTLA-4 (human, UniProt P16410 36-223).
T5 construct: also called huCTLA4
In words: flow cytometry on CHO cells stably expressing CTLA4.
In the case of B1, the “MFI at 33.3 nM” value worked out at 3090 MFI.
On the same count and under the same terms, then B2, with 12200 MFI; and B3, with 1200 MFI; and B4, with 27500 MFI.
Still for that read-out and setting: for B5 the value was 29000 MFI; for B6, 26600 MFI.
The same measure, in the same setting: for B7 the value was 32000 MFI.

In another test the target is T1, human PD-L1. The test can be described thus: flow cytometry on CHO cells stably expressing PD-L1.
B1: the “MFI at 33.3 nM” value is 20400 MFI.
The same measure, in the same setting: then B2, with 22500 MFI; and B3, with 47 MFI.
On to B4, for which the “MFI at 33.3 nM” value worked out at 22900 MFI.
Same read-out and setting: then B5, with 24800 MFI; and B6, with 22400 MFI; and B7, with 25500 MFI.

Another test deals with T2, human CD28. In words: flow cytometry on Jurkat cells (CD28); vs CD80 WT IgV-Fc.
B1: the “Fold change to WT CD80” value stood at 83.7 fold.
The same measure, in the same setting: for B2 the value was 74.7 fold; for B3, 1 fold.
Same read-out and setting: for B4 the value was 47.1 fold; for B5, 10.1 fold.
The same measure, in the same setting: for B6 the value was 2.6 fold; for B7, 3.5 fold.

Another test has as its target human CD28 (human, UniProt P10747 19-220). The test can be described thus: flow cytometry, Jurkat/IL2 reporter cells (endogenous CD28).
In the case of B8, the “MFI at 33.3 nM” value turned out to be 2000 MFI.
On to B9, for which the “MFI at 33.3 nM” value is 3610 MFI.

For a further test, the target named is T5, human CTLA-4. In words: flow cytometry on CHO cells stably expressing CTLA4; vs CD80 WT IgV-Fc.
On to B1, for which the “Fold change to WT CD80” value is 2.6 fold.
Same read-out and setting: for B2 the value was 10.2 fold; for B3, 1 fold; for B4, 23 fold.
With B5, the “Fold change to WT CD80” value turned out to be 24.2 fold.
Consider B6, for which the “Fold change to WT CD80” value is 22.2 fold.
Same read-out and setting: then B7, with 26.8 fold.

The target in the next test is T1, human PD-L1. In words: flow cytometry on CHO cells stably expressing PD-L1; vs CD80 WT IgV-Fc.
As to B1, the “Fold change to WT CD80” value worked out at 439 fold.
The same measure, in the same setting: then B2, with 484 fold; and B3, with 1 fold.
Consider B4, for which the “Fold change to WT CD80” value turned out to be 491 fold.
Same read-out and setting: then B5, with 533 fold.
Same read-out and setting: for B6 the value was 481 fold; for B7, 546 fold.

The target of the next test is T6, human PD-L1, expressed on CHO cells (human, UniProt Q9NZQ7 19-290).
T6 construct: Full-length surface expression construct transduced by lentivirus into CHO cells; also called huPD-L1; CD274
T6 sequence (Q9NZQ7 19-290): as above
The test can be described thus: flow cytometry on CHO cells stably expressing human PD-L1; PE anti-human Fc.
For B11, the “MFI at 33.3 nM” value was found to be 11900 MFI.

A further test concerns the target T7, human CTLA-4 (CTLA4), expressed on CHO cells (human, UniProt P16410 36-223).
T7 construct: Full-length surface expression construct transduced by lentivirus into CHO cells; also called huCTLA4
The test can be described thus: flow cytometry on CHO cells stably expressing human CTLA-4; PE anti-human Fc.
For B11, the “MFI at 33.3 nM” value came out at 226000 MFI.

A further test deals with T6, human PD-L1, expressed on CHO cells. The test can be described thus: flow cytometry; ratio of MFI on PD-L1 CHO cells to MFI on Jurkat (CD28) cells.
Turning to B11, the “Ratio of PDL1:CD28” value turned out to be 9 ratio.

Another test concerns the target T8, CD28, endogenously expressed on Jurkat/IL2 reporter cells (human, UniProt P10747 19-220).
T8 construct: Endogenous CD28 of Jurkat/IL2 reporter cells
In words: flow cytometry on Jurkat/IL2 reporter cells (endogenous CD28); PE anti-human Fc.
On to B12, for which the “MFI at 33.3 nM” value was found to be 18000 MFI.

For another test, the target named is T6, human PD-L1, expressed on CHO cells. The test can be described thus: flow cytometry on CHO cells stably expressing human PD-L1; MFI relative to WT CD80 ECD-Fc (R&D).
As to B11, the “Fold change to WT CD80” value worked out at 1 fold.

Another test deals with T7, human CTLA-4 (CTLA4), expressed on CHO …. In words: flow cytometry on CHO cells stably expressing human CTLA-4; MFI relative to WT CD80 ECD-Fc (R&D).
Take B11: the “Fold change to WT CD80” value amounted to 1.44 fold.

The record behind these values is US20210130436A1 (published 2021).
